Assay results published in US5726017.

Assays:
[1] = target: GST-gag (HIV-1 gag polyprotein, strain LAI) (HIV-1 (LAI)) (UniProt P03348); assay: filter; conditions: for Kd: 5 mM MgCl2, 37 C
[2] = target: GST-gag (HIV-1 gag polyprotein, strain LAI) (HIV-1 (LAI)) (UniProt P03348); assay: competition; conditions: 1 nM gag, scale: fold excess unlabeled Psi for 50% competition
[3] = tested on: glutathione S-transferase (GST); assay: filter; conditions: GST alone, low affinity
[4] = 50 mM Tris pH 7.5, 140 mM KCl, 5 mM NaCl

GGGAAAAGCGAAUCAUACACAAGANNNNNNNNNNNNNNNNNNNNNNNNNNNNNNNNNNNNNNNNNNNNNNNNNNGCUCCGCCAGAGACCAACCGAGAA [SELEX B round 0 RNA pool]
Kd [1, 4]: 1000 nM

GGGAAAAGCGAAUCAUACACAAGANNNNNNNNNNNNNNNNNNNNNNNNNNNNNNNNNNNNNNNNNNNNNNNNNNGCUCCGCCAGAGACCAACCGAGAA [SELEX B round 4 RNA pool]
Kd [1, 4]: 8.5 nM | fold excess of unlabeled Psi for 50% competition ([2]; 150 pM labeled pool): 74

GGGAAAAGCGAAUCAUACACAAGANNNNNNNNNNNNNNNNNNNNNNNNNNNNNNNNNNNNNNNNNNNNNNNNNNGCUCCGCCAGAGACCAACCGAGAA [SELEX B round 8 RNA pool]
Kd [1, 4]: 1.1 nM | fold excess of unlabeled Psi for 50% competition ([2]; 150 pM labeled pool): 630

GGGAGACAAGAAUAAACGCUCAANNNNNNNNNNNNNNNNNNNNNNNNNNNNNNNNNNNNNNNNNNNNNNNNNNUUCGACAGGAGGCUCACAACAGGC [SELEX A round 0 RNA pool]
binding signal (% bound at 10 nM gag) ([1]; 4.0% at 0.1 nM, 6.0% without gag, negative control): 3.5

GGGAGACAAGAAUAAACGCUCAANNNNNNNNNNNNNNNNNNNNNNNNNNNNNNNNNNNNNNNNNNNNNNNNNNUUCGACAGGAGGCUCACAACAGGC [SELEX A round 10 RNA pool]
Kd ([1]; 50 mM Tris pH 7.5, 200 mM KOAc, 10000-fold tRNA): 1.5 nM

GGGAGACAAGAAUAAACGCUCAAUCUCGUAUCAGCACACCGGUACAAAGAGGAUGCAAAUNCGCCUGUGACUUCGACAGGAGGCUCACAACAGGC [SW10.12]
binding signal (% bound at 10 nM gag) ([1]; 0.6% at 0.1 nM, 0.6% without gag): 11.2

HIV-1 Psi RNA (456 nt, transcribed from XhoI-linearized pBsPVR789)
binding signal (% bound at 10 nM gag) ([1]; 13.4% at 0.1 nM, 14.7% without gag, positive control): 87 | Kd ([1]; SELEX A experiment, 50 mM Tris pH 7.5, 200 mM KOAc): 1.1 nM | Kd ([1]; SELEX B experiment, 50 mM Tris pH 7.5, 140 mM KCl, 5 mM NaCl): 5.2 nM | fold excess of unlabeled Psi for 50% competition ([2]; 150 pM labeled Psi): 20

random RNA
Kd [3]: > 10000 nM
